# Results: the domain aggregation screens of Martell et al. (2025)
# Experiment: soluble fraction after stress (log2 fold change); higher = more stays soluble; pooled small domains, quantitative proteomics
# Settings: stress: 50 degC
# Outline: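 Pooled custom libraries of small protein domains were measured in a high-throughput format, with quantitative proteomics as the read-out. Each library was stressed at 50°C. Aggregation propensity is given as the base-two logarithm of the fold change in how much of each protein stays soluble after the stress. Higher values mean a larger share of the protein remains in solution.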
row,Sequence,soluble fraction (log2)
1,HMFDPTDLPEKQLMVYEIIKSNNGINMTNIASLLGFNKTTVDNAIRALKKKEIVVFKGTNRSGGYFNT,-1.66
2,HMGWVMLVIMSRGASEAQINAVVEKIRAAGLTEHLSKGIERTIIGAIGEERKLEPEVFELLPGVEQALHIV,-0.342
3,HMLDPYNVLGVPRDAGMDEIKKAYRKLSRTYHPDANIDNPNKAQAEEKFKQIQEAYQQIVKERTE,-0.384
4,HMEPLVSKVFQVSYQKTADLVALIKSEDSKLLSARGTLISDERTSQIFVQDTPTRLERISMIVNGL,-0.883
5,HMDQFMLQSAWLRAVQHVMKHTDDVGTQFAEEARRMHYGEADERPIRGQATSDEARALHDEGIEVMALPI,-0.303
6,HMFAVPAPEVDDILSEKKVDVLLLGPQVRYLLEQFTEKLKDKNIPIGVIPMVDYGMMNGSKVLALAEELIG,-0.0132
7,HMWKQISSEAELLPAVRSVIQANPGEAEKLRNGEMAPLEFLTGLVMKKTNGMAVPQIVKTLIKKELKI,0.00479
8,HMEKEEELNSIRPDLDGNDIMEILGVPAGPKVGKAYNYLLNVRLDEGPLSRAEAISRLEAWWENQ,-0.368
9,HMGQAAHYEGVKGDGESDTDVISRVLTAAGAEAQKDDIFVVKELIAGGKYSYTAYVYDGSVWAAM,-0.266
10,HMNYYYKDNQYWYVGFRYDERLVKEIKRFVGAGYNPENKEWYIPFTLPTVAPLQKWLHDNGFVEGMNYYP,-1.86
11,HMRGGKGTVPDVTGMDAAAAVRILEKAGMNVAYIRGAGFVAEQTPAAGTKLKKGDKAYITLSWK,-0.0707
12,HMPNPSAGRVHIDALLPFDRVEVTDMQGSLLLDHSFSPRRAVDLDLNARGTLLYTLWSKGHLLGKGRVVR,0.0169
13,HMEFENIEQRKQYWSDLYRELKAGQDAYAKELKKGTEGYTQDELDILKEFTDEAKKQMEAAGVEATDEFAS,-0.187
14,HMKDYKSSLQERVQAVGGGQLIYRVNREEGPDHSKTFYMDLFLGDRLIGTGSGRNKKQAEQQAAKEAIERG,0.0941
15,HMESIEGMYKISLLRKQGNAYVIFEDENKEAVEHIFPEKPTALELGTKVIEMFEYKERYDGLI,-0.366
16,HMLARFSGIALNTWTQADVERTFGPPMLVERVARFDGDIWTYRFMDDYEPRMAHIHIDRAGTVRQLVF,-2.77
17,HMEGDAFAFTGDIQKDLLSITAVHPMRREAVDALIAKAGASWAIVEKLLAHGELTEAKHDGHLFYLRKF,-0.81
18,HMLERPLKLKSHYVSAINEKVAVQFQAGEERKSIMGTLTEVNQDTIVIDDRGSVTEIPFKSIIRAKTVF,0.258
19,HMTAPDDFIRAEVTASGKNGMAVAELSKRVRTRFKSFKVRELGYPHLAGYLADVEGVRVYKQGRENWVAK,-0.905
20,HMNEQKVSSLLTPRQLAFIDEYLIDFNGAQAAIRAGYSHKTAGPQAARLLVNVNISRMIAERIEARNK,-1.7
21,HMGSIDYLVGSRLRQYRRLRGYSLIEFSAMLHRSKSAISKYERGEVSIDLRTLNEMARLLDIPLSGLLL,-4.56
22,HMNLVELKHAEEFNTLIIQDIGGRMKPAHTLASELVRKVFHNDDFNGIDPRKVFLSIIENSKVWFNVPFI,0.119
23,HMIALLRLGTAPDIKAQAPLATILARHNGEMSAKDLWQRFGGEIDTFYAQLKTEVAHGWILEPT,-0.617
24,HMSEPTLESLRAEGAHHYDPARFHYLEVLARRMPGQHAAVQQVLASRLREAVAAYAGRRSLI,-0.126
25,HMGKTIIQLATDYLIKNMQPKSLHDIESYVLTRKKIKKSSIGAILLSKPNIFGRTEDGLFGLRIWNNFQYT,-0.738

row,Sequence,soluble fraction (log2)
1,HMIIIMKPNASEEAVRKVTHIIESKGLQVHLSKGSQVTIVGVVGDKTRLQGSNIEISEGVDKVVAVT,-0.0139
2,HMGPWTETAAKGDAVSKRMLITWLQENADAEFLAAQKLTGQATSVAKRVTKDQLVELYLSVTTAA,-0.53
3,HMSGKGEFDQLLRSGEYVQAFQRANANGNVTLRRQQLLNLARHQAASGVGSGAIESLSTIQRI,0.0926
4,HMELEENTERVLNILIENDIISENDIAEKLEVKINGARKALYKLKEVGFVEYTKERDEEKKWWYIYFWKLN,-0.0109
5,HMRPFAMNLLEKHKADIEVWLKHPNMTNTQIKRLLEELGTSVSVSSIDRFISTSFPKLPKHT,-0.17
6,HMITAEQENILFEKASDDISNNIINKGIWTKAYSQAGGDESKQKAIYIDLLVNYYKMLIKAGEEFEDI,-1.39
7,HMTEQKNNEQQNAVNEKKQALKQLMEKGKEKGSLSYNEVNALLDKLEFTEDQKAIVYDQLHSEDIELQ,0.193
8,HMYSQIGYGSSGSDVRKLQEILNGKGYNLSVDGQFGAKTKSAVRDYQSKNGLSVDGIVGVNTWGKLT,-0.0169
9,HMYEVVPNMKGLSYEQAATALRTAGLEPELSDSIYDDKTRPGTVLEQSPRANTKVKPGRTVYLTVNAF,0.0459
10,HMPPALTELLSVRTNASGTIDYLLPDRSAGLRVENGSKYSGMVPDSIYRLVAIYEIKDAKEPSAYIYTI,-0.00921
11,HMLTRSTVNVETGTAAIGLGKLYGVYDMSRKGLKYSFSVDSDAMTKVMEMLLPLGIKSLTVEPPS,-1.57
12,HMYDASELNKALEEAKKLDLNNYTEESSEALKNAISKAEEALLSKDKETINSALEELNKAMDSL,0.112
13,HMNLAISAYQQLKSDIIRGVYAPGEKLLMSRLKVRYGLGIGPMREALSQLVSEHLVTAASQRGYRVAGM,-1.64
14,HMFKINNIIVSGLSEKSNLQTSEEIKNILFENIFFIKKDVLFKILEKNNLINSFEIKKIYPDTIEVKIKKT,0.153
15,HMQYQIITENGKQYYLYTVQKSEGFYSIGKRFEITNDEIIKANPEAALGLKLGQVLKIPVYK,-0.331
16,HMDRMMQPETWGRVYQWITDDPQVPDREEVLTLIKYHYGDFGKLMKLLHRLNEGKAWTYLSEHIFPRM,-0.123
17,HMVLVLPGEMIHVQVIDEGKEMGQGVGYLDDGTMVVVENGLRHIGRAIDVQVTKVLQTNAGRMIFGQPIL,-0.137
18,HMLTTADLMMVHANSNKAIDYIVTDDNTKLTVDEPVTAKWITTADSIYRAVAYYNKVGDGKAQIVSVGN,0.0204
19,HMGADGIPGKNGENGETSYVHFAYATSADGKTGFSTTDTVGKTYMGQYADFEKADSEDPTKYRWGKFQGP,0.102
20,HMNISLGALVTITDQKGRSHTVTLESGKQFFTNHGSINHDEIIKAGEGGVVASSSGMLYTIFTP,-0.836
21,HMQQLIEFSVTKGHPWINKKIMDLNLPENQLILTIQREGHVVSAEGKTIILENDRITISTDDR,-0.0156
22,HMGLGQRIKARREALGLSQARLGEAVGVSLQAVSNWERDEYLPDTARLPLIARALGLTPGQLME,0.0172
23,HMSKPLEVFKLTSEPFGFSFNTALGRSYTVEATGDLGVWKAVELFQGSGGEIRFTAKPTSSGGAQFFRVFV,-0.0927
24,HMETFGEKDLDELIGRNVELITHDGKVREGLVDSVDRYNVSLVRYLDAGEVAMMVRRREVKAVRLK,0.0419
25,HMDIGTYTVTASALNIRQYPTASSAKTGSYPNGSIVTIYEYLTDGSWGRTDDGWISMNYVSRRY,-2.01

row,Sequence,soluble fraction (log2)
1,HMDVSEITTIKWIIKETKLGINEKILIYVNSKNFTVETLMEGFEIMSKYLVENVSSDKIVYIKN,-0.179
2,HMGALARLLASVEQELGVTRDRMTRTQKQEAVTLLNEWGAFTLRKSVEDVAEALGVSRFTVYNYLERAEA,-2.74
3,HMTRPLVILEDVKFPSYNEIVSLTLPDGTRRGGQVLEVSGNKAIVQVFEGTSGIDVKDTHIELTKSS,0.0245
4,HMKLINEDLNNEIVFEENKVNLLVIENKKKFVQFIQEIIKQINGDEGKFSLFDINTELKIHDKIDII,0.185
5,HMEDDRLIQNLLLTAKNLVMDVGRMDESALAENEDTVRTAMLFALGYLYENRSNPDYHKLTLNLRSILFA,-0.493
6,HMTISDEAMQAGRDAFIQALVAMGAEKNADAMASIEKALSADPGNKEYLATRDLIKKSMGMKK,0.44
7,HMSNQLAVPDVTNMKANAAADRLRQQGLRVELKTESSNTVPRGMAIRTDPAASTMVARGGRVTLIISSGKG,-0.000921
8,HMTDEEFSRIVKYTAVRYGINLYHKKVMVEGRLSNYLAANGFKSYTEYMDRVEADYTGQEAQNLINILTT,-0.258
9,HMSKQQVRSILDDIPNIGETRRKALMRQFQSLEKIREASVGQLREVDGMNEKAAQSVYQFFHK,-0.0486
10,HMPRYSGMFAAWLHKALARMGKSMSDSARSAFTERVELDYSSANNELQKLSLLVGDRKVITEADVMRAIG,-0.292
11,HMEVLSKRGSTGTEVINIQKKLKNWGYYTGSVDGIYGKLTEEAVRYFQRTNGLTVDGIAGKNTLAAMGIA,-0.356
12,HMRRSDLVTQGDEILKRLQWNQQQAKDFLNQHLKASSRQQLTDEQLLNFNMLLEEQLVKSME,0.103
13,HMNIDNTWQPSEDVVEILTRSGINEDFINELIPEFIVYWTERPGTLVSYNSKFIEHVRLKWAQHSAEI,0.0597
14,HMPPAIKTLMFMIQNKSLLKSPKQLAVVQQQLKKIKGVRDVLILLEEGKVMLKVNKHETIHEASIIRLLGG,-0.521
15,HMGQEEKDIFLKLINISGIGPKLALNILSGIEASELEEAVRNTNVTRLSMVPGIGQKTALRIIMELSDKLE,-0.432
16,HMKELLQEMIMDILRAIASPNIDIKRKTLDLVLDLITPRNIDNVTGMLKTEVVKSQSENTSDVG,-0.623
17,HMHINLEGLKKIDFRKKIGFLFGSEASGLSNKEVSYANYTLQIPTNINFKSLNLSHSLIIIAQFISSLLNS,-0.333
18,HMDGEFINLKNRAGTEIEARILNYQNGQVKLERKDGVTFVVSISMFDAKSVIAINHKIAEIIDT,-1.37
19,HMDFTISDADFHRLVQFIQQNYGVALSKKRQLISSRLSHSLRELGYKDFRTFLEHLFSTRDPADLELVLNK,-0.989
20,HMSWNIHEAVEYYKGQDAPQNQFALVELLKEVQEHNGGVLTDIAVEEIAALLNTKVTFLNAVIKRYPSLK,-0.287
21,HMQLPFTPREHEITQLLSRGLSNRQIAEALSLSVRTVEGHIYQASTKLGISSRSELAVLVGQFA,-1.89
22,HMNEMEWVAKLIDQLPERERMILQLREIEQYEFDQIASLMEIPEGTVRVYLSRIRKKIKKQFIEIQSH,0.0739
23,HMKIDLKQIEGVLDELAKVKGSLITILQKTQETYGYLPKEAIIYISERTGIAESEIMGVATFYTQFRL,-0.105
24,HMIGERIKRARAAAGLSMQALGKQVGISANMVKKYEHDQSMPSSGVLLKLATALSVRTEYFFRPA,-1.28
25,HMSGSIIQQAENLERQFGDTREAILGTLSDPKMSEEILETLMERYNKQHGTNWDKNTWAEEWAKANK,0.23
